Values of other authors, collected in paper PMC8363833.

Legend:
[1] = molecular target: TEM1 beta-lactamase (Escherichia coli) (UniProt P62593)
[2] = molecular target: PC1 beta-lactamase (Staphylococcus aureus) (UniProt P00807)
Chain of UniProt P00807 (P00807 25-281): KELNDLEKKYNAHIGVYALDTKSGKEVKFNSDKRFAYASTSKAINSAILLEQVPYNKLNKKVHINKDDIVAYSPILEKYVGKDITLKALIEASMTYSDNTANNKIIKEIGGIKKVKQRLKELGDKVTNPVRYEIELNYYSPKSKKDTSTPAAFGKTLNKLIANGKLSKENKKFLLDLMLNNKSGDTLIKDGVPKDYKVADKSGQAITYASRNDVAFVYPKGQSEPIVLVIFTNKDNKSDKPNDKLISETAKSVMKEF

Chain of UniProt P62593 (P62593 24-286): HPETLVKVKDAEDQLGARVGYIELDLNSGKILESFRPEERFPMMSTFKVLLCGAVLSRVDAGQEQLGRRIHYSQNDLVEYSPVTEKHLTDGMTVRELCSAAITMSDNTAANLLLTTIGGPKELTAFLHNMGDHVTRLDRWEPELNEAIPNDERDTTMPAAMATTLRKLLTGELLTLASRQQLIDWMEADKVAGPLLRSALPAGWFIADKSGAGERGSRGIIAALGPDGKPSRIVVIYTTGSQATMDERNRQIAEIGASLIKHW

BLIP (from UniProt P35804)
Kd [1]: 1.3 nM | Kd [2]: 380 nM
